Test results as given in patent publication EP4477666A1 (Max-Planck-Gesellschaft zur Förderung der Wissenschaften …, dated 2024).
One block for each binder: values may come before it.

What was measured:
human Nup133 β-propeller = biological target: T1, human Nup133 β-propeller (human, UniProt Q8WUM0 67-514, limits assumed); assay: BLI (Octet Red96), biotinylated VHH on streptavidin sensors, 40 nM propeller in solution
T1 construct: domain: β-propeller; also called human Nup133 beta propeller; human propeller
T1 sequence (looked up): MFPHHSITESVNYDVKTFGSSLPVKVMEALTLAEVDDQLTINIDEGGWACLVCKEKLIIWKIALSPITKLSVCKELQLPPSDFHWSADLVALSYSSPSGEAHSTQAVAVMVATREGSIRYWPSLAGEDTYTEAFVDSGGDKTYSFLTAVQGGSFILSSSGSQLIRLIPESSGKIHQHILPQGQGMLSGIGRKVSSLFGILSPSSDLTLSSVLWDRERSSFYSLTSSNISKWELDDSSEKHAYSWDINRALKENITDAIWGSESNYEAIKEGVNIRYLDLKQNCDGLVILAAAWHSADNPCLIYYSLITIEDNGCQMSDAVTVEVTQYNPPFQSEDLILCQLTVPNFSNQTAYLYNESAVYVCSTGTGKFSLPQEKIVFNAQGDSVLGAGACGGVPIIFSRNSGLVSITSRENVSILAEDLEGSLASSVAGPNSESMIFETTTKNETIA

[1] = biological target: T2, Xenopus Nup133 β-propeller (Xenopus); assay: as above
T2 construct: domain: β-propeller; also called Xenopus Nup133 beta propeller; Xenopus propeller

[2] = biological target: T3, human Nup133 in nuclear pore complexes of HeLa cells (human, UniProt Q8WUM0 1-1156); assay: immunofluorescence of HeLa cells with fluorophore-labelled VHH (Figures 1 and 2)
T3 construct: whole, on cells; Endogenous protein inside permeabilized HeLa cells, as part of assembled NPCs; not on the cell surface; also called human NPCs
T3 sequence (looked up): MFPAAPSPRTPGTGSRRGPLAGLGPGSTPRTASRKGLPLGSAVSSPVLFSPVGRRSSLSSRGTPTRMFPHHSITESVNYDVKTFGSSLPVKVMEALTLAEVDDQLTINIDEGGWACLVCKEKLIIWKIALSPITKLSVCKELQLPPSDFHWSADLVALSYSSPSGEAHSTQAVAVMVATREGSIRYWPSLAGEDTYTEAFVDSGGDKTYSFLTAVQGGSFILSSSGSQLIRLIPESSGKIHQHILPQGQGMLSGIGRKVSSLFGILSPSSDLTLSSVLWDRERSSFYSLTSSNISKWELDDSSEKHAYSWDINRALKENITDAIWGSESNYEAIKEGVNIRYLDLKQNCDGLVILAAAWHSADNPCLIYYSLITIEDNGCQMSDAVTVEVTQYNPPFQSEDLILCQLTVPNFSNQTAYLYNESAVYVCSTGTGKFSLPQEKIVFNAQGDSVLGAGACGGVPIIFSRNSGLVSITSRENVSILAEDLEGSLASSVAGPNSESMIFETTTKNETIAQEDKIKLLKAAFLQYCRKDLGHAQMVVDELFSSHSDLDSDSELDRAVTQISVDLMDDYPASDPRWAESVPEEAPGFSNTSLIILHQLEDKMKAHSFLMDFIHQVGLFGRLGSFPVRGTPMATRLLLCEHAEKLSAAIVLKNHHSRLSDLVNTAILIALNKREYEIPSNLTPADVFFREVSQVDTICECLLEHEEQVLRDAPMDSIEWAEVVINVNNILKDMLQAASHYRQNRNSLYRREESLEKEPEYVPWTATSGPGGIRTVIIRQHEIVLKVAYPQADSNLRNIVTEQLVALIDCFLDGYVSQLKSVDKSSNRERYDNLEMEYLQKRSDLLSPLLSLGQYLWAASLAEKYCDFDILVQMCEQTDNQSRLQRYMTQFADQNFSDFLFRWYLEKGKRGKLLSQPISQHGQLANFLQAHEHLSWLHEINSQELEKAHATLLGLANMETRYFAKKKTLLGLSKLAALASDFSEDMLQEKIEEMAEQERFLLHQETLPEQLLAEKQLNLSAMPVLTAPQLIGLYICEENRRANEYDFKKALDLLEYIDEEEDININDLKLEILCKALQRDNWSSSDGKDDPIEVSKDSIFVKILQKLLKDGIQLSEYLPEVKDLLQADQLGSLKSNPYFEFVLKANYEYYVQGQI

human Nup358 = biological target: T4, human Nup358 (human, UniProt P49792 1-145); assay: Table 1, target and cross-reactivity (immunofluorescence, Figure 1)
T4 construct: The stainings were on whole NPCs of HeLa cells
T4 sequence (looked up): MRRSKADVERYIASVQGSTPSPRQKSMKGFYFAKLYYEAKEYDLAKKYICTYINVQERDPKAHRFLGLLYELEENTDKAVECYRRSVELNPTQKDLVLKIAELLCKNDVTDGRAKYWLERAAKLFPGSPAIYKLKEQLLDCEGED

B1: KG1D08, biotinylated, reduced form (structural cysteines not disulfide-bonded) (VHH)
VHH: QVQLVESGGGLVQAGGSLRLSCAASGRSFRGNIMAWFRQTPGKERLFVASITGSGYTSYENSVKGRFTISRDSARDTVDLQMTTLAPEDTAVYYCAGRFRGGHNRMPDAYEYWGQGTQVTVSS
modifications: Biotin-PEG11-maleimide on the two additional cysteines at N- and C-terminus; structural cysteines reduced ; Two additional ectopic cysteines at the N- and C-terminus, not in the letters, each carry Biotin-PEG11-maleimide. Struct [CUT]
notes: Expressed in the cytoplasm of E. coli NEB Express; also called reduced KG1D08; not shown: The short N- and C-terminal extensions that carry the two ectopic, biotinylated cysteines
Kd (human Nup133 β-propeller): ~2 nM
Kd [1]: < 0.01 nM

B2: KG1D08, biotinylated, post-production disulfide-bridged form (VHH)
VHH: B1 VHH
modifications: Biotin-PEG11-maleimide on the two additional cysteines at N- and C-terminus; structural cysteines quantitatively oxidized to the intramolecular disulfide bond ; Two additional ectopic cysteines at the N- and C-terminus, not in the letters, each carry Biotin-PEG11-maleimide. Struct [CUT]
notes: Same preparation as the reduced form, then treated with 2 mM GSSG and 1.5 µM each DsbA, DsbC, DsbG for 5 minutes at 52°C (45 minutes heat up); also called KG1D08 with post-production disulfide-bonding; disulfide-stabilized VHH; not shown: The short N- and C-terminal extensions that carry the two ectopic, biotinylated cysteines
Kd (human Nup133 β-propeller): ~2 nM
Kd [1]: < 0.01 nM

Other lines, results leading:

binding result [2]: binds
B3: KG1D08 (VHH)
VHH: B1 VHH
notes: also called anti-Nup133 VHH KG1D08

binding result (human Nup358): binds
B4: xhNup358-Nb2t (VHH)
VHH: QVQLVESGGGLVQPGGSLRLSCAASGRPLSDYAMGWFRQAPGKEREFVAAISWKGGETFYAGSVKGRFTISRDDAKNSLYLQMNNLKLEDTAEYSCAAVLGSPHYSGTHYYPAEYDYWGQGTQVTVSS
notes: For staining the VHHs carried two ectopic cysteines (N- and C-termini) labelled with fluorophore maleimide
